For the test, the target named is T1, OTULIN (OTU deubiquitinase with linear linkage specificity, FAM105B), His-tagged, biotin-labelled (human, UniProt Q96BN8 1-352, biotin (label; sites not stated)).
T1 construct: OTULIN (FAM105B), cDNA in pET28a; also called HIS-OTULIN; source: E. coli BL21 (DE3), purified (His-tag Purification Resin), labelled with biotin; not shown: His6, N-terminal, kept
Description: peptide or protein array; HuProt human proteome microarray; 5 ug/5 ml biotin-labelled LUBAC or OTULIN in solution, 1 h at room temperature; Cy5-streptavidin, scanned at 635 nm; BSA as negative control; hits: Z-score >= 3 and I_(Mean_Ratio) >= 1.4. The note with it: both partners purified.

B1: PDCD6 (natural protein, human, UniProt O75340 1-191, looked up)
chain: MAAYSYRPGPGAGPGPAAGAALPDQSFLWNVFQRVDKDRSGVISDTELQQALSNGTWTPFNPVTVRSIISMFDRENKAGVNFSEFTGVWKYITDWQNVFRTYDRDNSGMIDKNELKQALSGFGYRLSDQFHDILIRKFDRQGRGQIAFDDFIQGCIVLQRLTDIFRRYDTDQDGWIQVSYEQYLSMVFSIV
notes: PDCD6; protein on the human proteome microarray; source: spotted on the HuProt human proteome microarray
For the molecule B1, the binding result is listed as “binds”.

B2: MIF (natural protein, human, UniProt P14174 1-115, looked up)
chain: MPMFIVNTNVPRASVPDGFLSELTQQLAQATGKPPQYIAVHVVPDQLMAFGGSSEPCALCSLHSIGKIGGAQNRSYSKLLCGLLAERLRISPDRVYINYYDMNAANVGWNNSTFA
notes: MIF; protein on the human proteome microarray; source: spotted on the HuProt human proteome microarray
As to B2, the binding result is listed as “binds”.

B3: NUDT16L1 (natural protein, human, UniProt Q9BRJ7 1-211, looked up)
chain: MSTAAVPELKQISRVEAMRLGPGWSHSCHAMLYAANPGQLFGRIPMRFSVLMQMRFDGLLGFPGGFVDRRFWSLEDGLNRVLGLGLGCLRLTEADYLSSHLTEGPHRVVAHLYARQLTLEQLHAVEISAVHSRDHGLEVLGLVRVPLYTQKDRVGGFPNFLSNAFVSTAKCQLLFALKVLNMMPEEKLVEALAAATEKQKKALEKLLPASS
notes: NUDT16L1; protein on the human proteome microarray; source: spotted on the HuProt human proteome microarray
As to B3, the binding result is recorded as “binds”.

B4: NME2 (natural protein, human, UniProt P22392 1-152, looked up)
chain: MANLERTFIAIKPDGVQRGLVGEIIKRFEQKGFRLVAMKFLRASEEHLKQHYIDLKDRPFFPGLVKYMNSGPVVAMVWEGLNVVKTGRVMLGETNPADSKPGTIRGDFCIQVGRNIIHGSDSVKSAEKEISLWFKPEELVDYKSCAHDWVYE
notes: NME2; protein on the human proteome microarray; source: spotted on the HuProt human proteome microarray
As to B4, the binding result is “binds”.

B5: NUDT6 (natural protein, human, UniProt P53370 1-316, looked up)
chain: MRQPLSWGRWRAMLARTYGPGPSAGYRWASGAQGYVRNPPVGACDLQGELDRFGGISVRLARLDALDRLDAAAFQKGLQAAVQQWRSEGRTAVWLHIPILQSRFIAPAASLGFCFHHAESDSSTLTLWLREGPSRLPGYASHQVGVAGAVFDESTRKILVVQDRNKLKNMWKFPGGLSEPEEDIGDTAVREVFEETGIKSEFRSVLSIRQQHTNPGAFGKSDMYIICRLKPYSFTINFCQEECLRCEWMDLNDLAKTENTTPITSRVARLLLYGYREGFDKIDLTVEELPAVYTGLFYKLYHKELPENYKTMKGID
notes: NUDT6; protein on the human proteome microarray; source: spotted on the HuProt human proteome microarray
Turning to B5, the binding result is “binds”.

B6: NTPCR (natural protein, human, UniProt Q9BSD7 1-190, looked up)
chain: MARHVFLTGPPGVGKTTLIHKASEVLKSSGVPVDGFYTEEVRQGGRRIGFDVVTLSGTRGPLSRVGLEPPPGKRECRVGQYVVDLTSFEQLALPVLRNADCSSGPGQRVCVIDEIGKMELFSQLFIQAVRQTLSTPGTIILGTIPVPKGKPLALVEEIRNRKDVKVFNVTKENRNHLLPDIVTCVQSSRK
notes: NTPCR; protein on the human proteome microarray; source: spotted on the HuProt human proteome microarray
B6: the binding result is “binds”.

B7: NAT6 (natural protein, human, UniProt Q93015 1-286, looked up)
chain: MELILSTSPAELTLDPACQPKLPLDSTCQPEMTFNPGPTELTLDPEHQPEETPAPSLAELTLEPVHRRPELLDACADLINDQWPRSRTSRLHSLGQSSDAFPLCLMLLSPHPTLEAAPVVVGHARLSRVLNQPQSLLVETVVVARALRGRGFGRRLMEGLEVFARARGFRKLHLTTHDQVHFYTHLGYQLGEPVQGLVFTSRRLPATLLNAFPTAPSPRPPRKAPNLTAQAAPRGPKGPPLPPPPPLPECLTISPPVPSGPPSKSLLETQYQNVRGRPIFWMEKDI
notes: NAT6; protein on the human proteome microarray; source: spotted on the HuProt human proteome microarray
In the case of B7, the binding result was “binds”.

B8: ODAM (natural protein, human, UniProt A1E959 16-279, looked up)
chain: APLIPQRLMSASNSNELLLNLNNGQLLPLQLQGPLNSWIPPFSGILQQQQQAQIPGLSQFSLSALDQFAGLLPNQIPLTGEASFAQGAQAGQVDPLQLQTPPQTQPGPSHVMPYVFSFKMPQEQGQMFQYYPVYMVLPWEQPQQTVPRSPQQTRQQQYEEQIPFYAQFGYIPQLAEPAISGGQQQLAFDPQLGTAPEIAVMSTGEEIPYLQKEAINFRHDSAGVFMPSTSPKPSTTNVFTSAVDQTITPELPEEKDKTDSLREP
notes: ODAM; protein on the human proteome microarray; source: spotted on the HuProt human proteome microarray
For the molecule B8, the binding result is on record as “binds”.

B9: PYCR2 (natural protein, human, UniProt Q96C36 1-320, looked up)
chain: MSVGFIGAGQLAYALARGFTAAGILSAHKIIASSPEMNLPTVSALRKMGVNLTRSNKETVKHSDVLFLAVKPHIIPFILDEIGADVQARHIVVSCAAGVTISSVEKKLMAFQPAPKVIRCMTNTPVVVQEGATVYATGTHALVEDGQLLEQLMSSVGFCTEVEEDLIDAVTGLSGSGPAYAFMALDALADGGVKMGLPRRLAIQLGAQALLGAAKMLLDSEQHPCQLKDNVCSPGGATIHALHFLESGGFRSLLINAVEASCIRTRELQSMADQEKISPAALKKTLLDRVKLESPTVSTLTPSSPGKLLTRSLALGGKKD
notes: PYCR2; protein on the human proteome microarray; source: spotted on the HuProt human proteome microarray
In the case of B9, the binding result is “binds”.

B10: OVOL2 (natural protein, human, UniProt Q9BRP0 1-275, looked up)
chain: MPKVFLVKRRSLGVSVRSWDELPDEKRADTYIPVGLGRLLHDPPEDCRSDGGSSSGSGSSSAGEPGGAESSSSPHAPESETPEPGDAEGPDGHLATKQRPVARSKIKFTTGTCSDSVVHSCDLCGKGFRLQRMLNRHLKCHNQVKRHLCTFCGKGFNDTFDLKRHVRTHTGIRPYKCNVCNKAFTQRCSLESHLKKIHGVQQQYAYKQRRDKLYVCEDCGYTGPTQEDLYLHVNSAHPGSSFLKKTSKKLAALLQGKLTSAHQENTSLSEEEERK
notes: OVOL2; protein on the human proteome microarray; source: spotted on the HuProt human proteome microarray
B10: the binding result is recorded as “binds”.

B11: MAGEB1 (natural protein, human, UniProt P43366 1-347, looked up)
chain: MPRGQKSKLRAREKRRKAREETQGLKVAHATAAEKEECPSSSPVLGDTPTSSPAAGIPQKPQGAPPTTTAAAAVSCTESDEGAKCQGEENASFSQATTSTESSVKDPVAWEAGMLMHFILRKYKMREPIMKADMLKVVDEKYKDHFTEILNGASRRLELVFGLDLKEDNPSGHTYTLVSKLNLTNDGNLSNDWDFPRNGLLMPLLGVIFLKGNSATEEEIWKFMNVLGAYDGEEHLIYGEPRKFITQDLVQEKYLKYEQVPNSDPPRYQFLWGPRAYAETTKMKVLEFLAKMNGATPRDFPSHYEEALRDEEERAQVRSSVRARRRTTATTFRARSRAPFSRSSHPM
notes: MAGEB1; protein on the human proteome microarray; source: spotted on the HuProt human proteome microarray
As for B11, the binding result is reported as “binds”.

B12: LOR (natural protein, human, UniProt P23490 1-312, looked up)
chain: MSYQKKQPTPQPPVDCVKTSGGGGGGGGSGGGGCGFFGGGGSGGGSSGSGCGYSGGGGYSGGGCGGGSSGGGGGGGIGGCGGGSGGSVKYSGGGGSSGGGSGCFSSGGGGSGCFSSGGGGSSGGGSGCFSSGGGGSSGGGSGCFSSGGGGFSGQAVQCQSYGGVSSGGSSGGGSGCFSSGGGGGSVCGYSGGGSGCGGGSSGGSGSGYVSSQQVTQTSCAPQPSYGGGSSGGGGSGGSGCFSSGGGGGSSGCGGGSSGIGSGCIISGGGSVCGGGSSGGGGGGSSVGGSGSGKGVPICHQTQQKQAPTWPSK
notes: LOR; protein on the human proteome microarray; source: spotted on the HuProt human proteome microarray
With B12, the binding result is reported as “binds”.

B13: NECAP2 (natural protein, human, UniProt Q9NVZ3 1-263, looked up)
chain: MEESGYESVLCVKPDVHVYRIPPRATNRGYRAAEWQLDQPSWSGRLRITAKGQMAYIKLEDRTSGELFAQAPVDQFPGTAVESVTDSSRYFVIRIEDGNGRRAFIGIGFGDRGDAFDFNVALQDHFKWVKQQCEFAKQAQNPDQGPKLDLGFKEGQTIKLNIANMKKKEGAAGNPRVRPASTGGLSLLPPPPGGKTSTLIPPPGEQLAVGGSLVQPAVAPSSGGAPVPWPQPNPATADIWGDFTKSTGSTSSQTQPGTGWVQF
notes: NECAP2; protein on the human proteome microarray; source: spotted on the HuProt human proteome microarray
In the case of B13, the binding result is “binds”.

B14: MPST (natural protein, human, UniProt P25325 1-297, looked up)
chain: MASPQLCRALVSAQWVAEALRAPRAGQPLQLLDASWYLPKLGRDARREFEERHIPGAAFFDIDQCSDRTSPYDHMLPGAEHFAEYAGRLGVGAATHVVIYDASDQGLYSAPRVWWMFRAFGHHAVSLLDGGLRHWLRQNLPLSSGKSQPAPAEFRAQLDPAFIKTYEDIKENLESRRFQVVDSRATGRFRGTEPEPRDGIEPGHIPGTVNIPFTDFLSQEGLEKSPEEIRHLFQEKKVDLSKPLVATCGSGVTACHVALGAYLCGKPDVPIYDGSWVEWYMRARPEDVISEGRGKTH
notes: MPST; protein on the human proteome microarray; source: spotted on the HuProt human proteome microarray
For B14, the binding result is reported as “binds”.

B15: NABP1 (natural protein, human, UniProt Q96AH0 1-204, looked up)
chain: MNRVNDPLIFIRDIKPGLKNLNVVFIVLEIGRVTKTKDGHEVRSCKVADKTGSITISVWDEIGGLIQPGDIIRLTRGYASMWKGCLTLYTGRGGELQKIGEFCMVYSEVPNFSEPNPDYRGQQNKGAQSEQKNNSMNSNMGTGTFGPVGNGVHTGPESREHQFSHAGRSNGRGLINPQLQGTASNQTVMTTISNGRDPRRAFKR
notes: NABP1; protein on the human proteome microarray; source: spotted on the HuProt human proteome microarray
As for B15, the binding result was “binds”.

B16: MSI2 (natural protein)
chain: not shown
notes: MSI2; protein on the human proteome microarray; source: spotted on the HuProt human proteome microarray
Turning to B16, the binding result was “binds”.

B17: KLHDC9 (natural protein, human, UniProt Q8NEP7 1-349, looked up)
chain: MAVAVPPGRAAGSGWAWRPVARDALLARAFHSCTELRGRFYLVGGLLAGGAREPSSDTVVFDPARGQAVRLGARGSPPRSHHDAAPVDGRWLCVVGGWDGSRRLATVTALDTERGVWEAWTGTPGDCPPAGLSSHTCTRISDRELQVAGREGGIHTQRRYGSIYTLRLDPSARTYCYKQEGCHTASRSGHCAALLQTPGPHPGHQLLLFGGCNLAEPEVAGHWSHGKIKEEPPVAPHLMEQLARLVSSGQGSQKGPHGLRHHSCSVVGPFAVLFGGETLTRARDTICNDLYIYDTRTSPPLWFHFPCADRGMKRMGHRTCLWNDQLYLVGGFGEDGRTASPQVCILDFI
notes: KLHDC9; protein on the human proteome microarray; source: spotted on the HuProt human proteome microarray
With B17, the binding result is recorded as “binds”.

B18: PYCRL (natural protein, human, UniProt Q53H96 1-274, looked up)
chain: MAAAEPSPRRVGFVGAGRMAGAIAQGLIRAGKVEAQHILASAPTDRNLCHFQALGCRTTHSNQEVLQSCLLVIFATKPHVLPAVLAEVAPVVTTEHILVSVAAGVSLSTLEELLPPNTRVLRVLPNLPCVVQEGAIVMARGRHVGSSETKLLQHLLEACGRCEEVPEAYVDIHTGLSGSGVAFVCAFSEALAEGAVKMGMPSSLAHRIAAQTLLGTAKMLLHEGQHPAQLRSDVCTPGGTTIYGLHALEQGGLRAATMSAVEAATCRAKELSRK
notes: PYCRL; protein on the human proteome microarray; source: spotted on the HuProt human proteome microarray
Take B18: the binding result was “binds”.

B19: POP7 (natural protein, human, UniProt O75817 1-140, looked up)
chain: MAENREPRGAVEAELDPVEYTLRKRLPSRLPRRPNDIYVNMKTDFKAQLARCQKLLDGGARGQNACSEIYIHGLGLAINRAINIALQLQAGSFGSLQVAANTSTVELVDELEPETDTREPLTRIRNNSAIHIRVFRVTPK
notes: POP7; protein on the human proteome microarray; source: spotted on the HuProt human proteome microarray
As to B19, the binding result is “binds”.
